From the Human Domainome abundance scans (Beltran et al. 2025)
± gives the uncertainty stated by the source.

B1: Steroid hormone receptor ERR2, residues 100 to 176; numbered along this chain, O95718 (parent)
chain: KRLCLVCGDIASGYHYGVASCEACKAFFKRTIQGNIEYSCPATNECEITKRRRKSCQACRFMKCLKVGMLKEGVRLD
B2: Transcriptional regulator ERG, residues 117 to 197; numbered along this chain, P11308 (parent)
chain: NMTTNERRVIVPADPTLWSTDHVRQWLEWAVKEYGLPDVNILLFQNIDGKELCKMTKDDFQRLTPSYNADILLSHLHYLRE

Variants of: B1
Assay: abundance fitness (aPCA) (normalised: wild type 0, dead -1); higher = more abundant; growth selection in yeast, the domain comes from the species named
Conditions: Homo sapiens

Variant | abundance fitness
Q57A | -0.018 ± 0.046
Q57W | -0.15 ± 0.049
D9Q | -0.143 ± 0.078
D9S | -0.36 ± 0.069
L3A | -0.047 ± 0.048
R51S | -0.14 ± 0.066
E22N | 0.322 ± 0.068
E22A | 0.012 ± 0.046
I10S | -0.033 ± 0.055
C40S | -0.632 ± 0.094
C40D | -0.982 ± 0.37
F61P | -1.29 ± 0.38
F61W | 0.125 ± 0.047
F61I | -0.074 ± 0.088
N35I | -0.593 ± 0.17
A19Q | -0.113 ± 0.057
A19C | -0.41 ± 0.1
R2Q | -0.367 ± 0.096
R30G | -0.006 ± 0.037
V6K | -0.211 ± 0.074
V6R | -0.739 ± 0.08
K29T | 0.215 ± 0.049

Variant | abundance fitness
K29V | 0.079 ± 0.038
K29F | -0.132 ± 0.087
G73H | -0.104 ± 0.12
C64S | -0.396 ± 0.065
K50G | -0.102 ± 0.091
V74K | -0.124 ± 0.078
A11E | -0.11 ± 0.063
E47K | -0.155 ± 0.091
E47L | -0.103 ± 0.061
R53T | 0.063 ± 0.065
C46S | -0.539 ± 0.079
C46H | -0.308 ± 0.2
Y14G | -0.017 ± 0.051
L76W | -0.095 ± 0.053
F27M | -0.473 ± 0.073
L65E | -0.132 ± 0.054
L65N | -0.813 ± 0.31
L5C | -0.375 ± 0.14
V67W | -0.665 ± 0.13
T31W | -0.925 ± 0.11
T31N | -0.546 ± 0.35
T31M | -0.223 ± 0.073

Variant | abundance fitness
T31E | -0.744 ± 0.12
H15C | -0.435 ± 0.11
H15F | -0.197 ± 0.088
T43S | -0.237 ± 0.051
G8V | -1.11 ± 0.17
G8H | -0.102 ± 0.1
G8D | -0.096 ± 0.092
G8Y | -0.132 ± 0.12
G8M | -0.201 ± 0.071
S12M | -0.118 ± 0.063
S12W | -0.253 ± 0.083
D77S | -0.059 ± 0.077
T49I | -0.281 ± 0.12
T49W | -0.199 ± 0.092
T49A | 0.189 ± 0.055
T49E | -0.003 ± 0.095
K54R | 0.008 ± 0.044
V18H | -0.245 ± 0.1
V18D | -0.471 ± 0.18
V18G | -0.259 ± 0.066
M69H | -1.06 ± 0.37
C56M | -0.9 ± 0.16

Variant | abundance fitness
Y16H | -0.378 ± 0.14
Y16V | -0.115 ± 0.041
Y16E | -0.06 ± 0.055
N44Q | -0.013 ± 0.059
N44F | 0.068 ± 0.14
Q33V | -0.148 ± 0.048
Q33C | -0.114 ± 0.068
Q33M | -0.279 ± 0.087
R75Q | 0.153 ± 0.054
R75K | 0.075 ± 0.057
R75T | 0.062 ± 0.059
R75E | 0.076 ± 0.051
R75W | -0.1 ± 0.052
C7G | -0.96 ± 0.11
A42M | -0.033 ± 0.071
A42G | -0.025 ± 0.037
A42W | -0.043 ± 0.043
S39W | 0.22 ± 0.047
S39M | 0.39 ± 0.048
S39T | 0.254 ± 0.053
S39P | 0.089 ± 0.067
R60C | 0.013 ± 0.066

Variant | abundance fitness
R60L | 0.183 ± 0.042
G13M | -0.539 ± 0.19
G13I | 0.038 ± 0.17
G13C | -0.947 ± 0.29
A58N | 0.044 ± 0.14
K71C | -0.006 ± 0.069
K71Q | -0.153 ± 0.073
K71W | -0.242 ± 0.058
C59D | -0.513 ± 0.2
I32M | -0.47 ± 0.096
S20G | 0.282 ± 0.032
S20F | -0.485 ± 0.12
I48W | -0.227 ± 0.13
I36V | 0.003 ± 0.044
A26L | -0.135 ± 0.043
A26K | -0.229 ± 0.066
K25S | 0.222 ± 0.04
K25Q | 0.317 ± 0.045

Variants of: B2
Assay: as above
Conditions: Homo sapiens

Variant | abundance fitness
I10A | 0.124 ± 0.039
I10V | 0.03 ± 0.04
I10C | -0.026 ± 0.066
I10F | -0.06 ± 0.077
I10H | 0.138 ± 0.085
I10E | 0.21 ± 0.043
I10S | 0.116 ± 0.046
I10T | 0.264 ± 0.062
I10R | 0.093 ± 0.035
I10M | 0.038 ± 0.053
I10Q | 0.129 ± 0.056
I10L | -0.058 ± 0.047
I10D | 0.328 ± 0.066
I10K | 0.109 ± 0.055
I10Y | -0.013 ± 0.1
I10P | 0.214 ± 0.06
I10G | 0.227 ± 0.03
I10W | -0.089 ± 0.049
E6P | 0.033 ± 0.06
E6R | -0.088 ± 0.036
E6G | 0.031 ± 0.029

Variant | abundance fitness
E6C | -0.242 ± 0.058
E6T | -0.017 ± 0.055
E6L | 0.006 ± 0.042
E6Q | 0.002 ± 0.067
E6A | -0.139 ± 0.043
E6S | -0.107 ± 0.047
E6W | 0.037 ± 0.041
E6H | 0.004 ± 0.083
E6D | -0.085 ± 0.073
E6V | -0.142 ± 0.042
E6N | 0.017 ± 0.068
E6M | 0.024 ± 0.059
E6F | 0.002 ± 0.082
E6I | 0.007 ± 0.091
E6Y | -0.089 ± 0.091
N1M | -0.087 ± 0.071
N1H | -0.279 ± 0.085
N1F | 0.012 ± 0.076
N1C | -0.057 ± 0.068
N1W | -0.168 ± 0.081
N1T | 0.002 ± 0.072

Variant | abundance fitness
N1Q | -0.011 ± 0.17
N1Y | 0.029 ± 0.069
N1A | -0.144 ± 0.092
N1D | -0.071 ± 0.081
N1G | -0.154 ± 0.078
N1S | -0.097 ± 0.066
N1R | -0.054 ± 0.072
N1I | 0.007 ± 0.081
N1E | -0.038 ± 0.12
N1K | -0.114 ± 0.09
T4A | -0.099 ± 0.043
T4R | -0.149 ± 0.037
T4W | 0.01 ± 0.047
T4I | 0.054 ± 0.086
T4C | -0.018 ± 0.059
T4G | -0.042 ± 0.032
T4L | -0.025 ± 0.044
T4P | -0.056 ± 0.056
T4Y | -0.04 ± 0.078
